Source: patent US20150203577A1 (Chugai, published 2015)
Residue numbers refer to the chain shown, from its start.

T1: mouse FcγRII extracellular domain, C-terminally His-tagged (mouse, UniProt P08101 30-210)
T1 construct: the whole entry is named; also called mFcγRII; mFcgRII
T1 sequence: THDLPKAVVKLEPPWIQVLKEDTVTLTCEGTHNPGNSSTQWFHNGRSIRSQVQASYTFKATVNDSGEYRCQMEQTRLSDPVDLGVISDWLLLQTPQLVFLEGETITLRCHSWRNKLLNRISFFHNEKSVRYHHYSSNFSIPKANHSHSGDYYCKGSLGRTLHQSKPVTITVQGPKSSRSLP

T2: mouse FcγRIII extracellular domain, C-terminally His-tagged (mouse, UniProt P08508 31-215)
T2 construct: the whole entry is named; also called mFcγRIII; mFcgRIII
T2 chain: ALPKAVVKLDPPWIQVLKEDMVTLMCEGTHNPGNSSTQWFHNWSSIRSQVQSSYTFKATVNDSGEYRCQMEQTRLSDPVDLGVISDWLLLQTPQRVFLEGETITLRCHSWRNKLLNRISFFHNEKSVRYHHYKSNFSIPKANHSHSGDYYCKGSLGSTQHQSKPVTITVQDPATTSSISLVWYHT

T3: mouse FcγRIII extracellular domain with C-terminal His tag (mouse, UniProt P08508 31-215)
T3 construct: Made on the basis of NCBI NP-034318.2; also called mFcγRIII; mFcgRIII
T3 chain: T2 chain

T4: mouse FcγRII extracellular domain with C-terminal His tag (mouse, UniProt P08101 30-210)
T4 construct: Made on the basis of NCBI NP-034317.1; also called mFcγRII; mFcgRII
T4 sequence: T1 sequence

B1: H237-MB644/MRAL-k0 (antibody, mouse IgG1, kappa)
heavy: QVQLQESGPGLVKPSETLSLTCAVSGHSISHDHAWSWVRQPPGEGLEWIGFISYSGITNYNPSLQGRVTISRDNSKNTLYLQMNSLRAEDTAVYYCARSLARTTAMDYWGEGTLVTVSSAKTTPPSVYPLAPGSAAQTNSMVTLGCLVKGYFPEPVTVTWNSGSLSSGVHTFPAVLQSDLYTLSSSVTVPSSTWPSETVTCNVAHPASSTKVDKKIVPRDCGCKPCICETYEVEYVFIFPPKPKDVLTITLTPKVTCVVVDISKDDPEVQFSWFVDDVEVHTAQTQPREEQFNSTFRSVSELPIMHQDWLNGKEFKCRVNSAAFPAPIEKTISKTKGRPKAPQVYTIPPPKEQMAKDKVSLTCMITDFFPEDITVEWQWNGQPAENYKNTQPIMDTDGSYFVYSKLNVQKSNWEAGNTFTCSVLHEGLHNHHTEKSLSHSPGK
light: not shown
notes: copies: 2 + 2
B2: H237-MB655/MRAL-k0 (antibody, mouse IgG1, kappa)
heavy: B1 heavy with T230P, Y231A, Y235F
light: not shown
notes: copies: 2 + 2
B3: H237-MB716/MRAL-k0 (antibody, mouse IgG1, kappa)
heavy: B1 heavy with T230P, Y231N, Y235I
light: not shown
notes: copies: 2 + 2
B4: H237-MB713/MRAL-k0 (antibody, mouse IgG1, kappa)
heavy: B1 heavy with T230P, Y231N, Y235A
light: not shown
notes: copies: 2 + 2
B5: H237-MB714/MRAL-k0 (antibody, mouse IgG1, kappa)
heavy: B1 heavy with T230P, Y231N, Y235G
light: not shown
notes: copies: 2 + 2
B6: H237-MB648/MRAL-k0 (antibody, mouse IgG1, kappa)
heavy: B1 heavy with T230P, Y231N
light: not shown
notes: copies: 2 + 2
B7: H237-MB719/MRAL-k0 (antibody, mouse IgG1, kappa)
heavy: B1 heavy with T230P, Y231N, Y235Q
light: not shown
notes: copies: 2 + 2
B8: H237-MB709/MRAL-k0 (antibody, mouse IgG1, kappa)
heavy: B1 heavy with T230P, Y231A, Y235T
light: not shown
notes: copies: 2 + 2
B9: H237-MB652/MRAL-k0 (antibody, mouse IgG1, kappa)
heavy: B1 heavy with T230N, Y235F
light: not shown
notes: copies: 2 + 2
B10: H237-MB649/MRAL-k0 (antibody, mouse IgG1, kappa)
heavy: B1 heavy with E229Q, T230P, Y231N
light: not shown
notes: copies: 2 + 2
B11: H237-MB657/MRAL-k0 (antibody, mouse IgG1, kappa)
heavy: B1 heavy with T230P, Y231N, Y235F
light: not shown
notes: copies: 2 + 2
B12: H237-MB793/MRAL-k0 (antibody, mouse IgG1, kappa)
heavy: B1 heavy with E229Q, T230P, Y231N, Y235I
light: not shown
notes: copies: 2 + 2
B13: H237-MB708/MRAL-k0 (antibody, mouse IgG1, kappa)
heavy: B1 heavy with T230P, Y231A, Y235P
light: not shown
notes: copies: 2 + 2
B14: H237-MB653/MRAL-k0 (antibody, mouse IgG1, kappa)
heavy: B1 heavy with Y235F
light: not shown
notes: copies: 2 + 2
B15: H237-MB717/MRAL-k0 (antibody, mouse IgG1, kappa)
heavy: B1 heavy with T230P, Y231N, Y235P
light: not shown
notes: copies: 2 + 2
B16: H237-MB651/MRAL-k0 (antibody, mouse IgG1, kappa)
heavy: B1 heavy with T230D, Y235F
light: not shown
notes: copies: 2 + 2
B17: H237-MB646/MRAL-k0 (antibody, mouse IgG1, kappa)
heavy: B1 heavy with T230P, Y231A
light: not shown
notes: copies: 2 + 2
B18: H237-MB647/MRAL-k0 (antibody, mouse IgG1, kappa)
heavy: B1 heavy with E229I, T230P, Y231A
light: not shown
notes: copies: 2 + 2
B19: H237-MB715/MRAL-k0 (antibody, mouse IgG1, kappa)
heavy: B1 heavy with T230P, Y231N, Y235V
light: not shown
notes: copies: 2 + 2
B20: H237-MB718/MRAL-k0 (antibody, mouse IgG1, kappa)
heavy: B1 heavy with T230P, Y231N, Y235T
light: not shown
notes: copies: 2 + 2
B21: H237-MB710/MRAL-k0 (antibody)
heavy: B1 heavy with T230P, Y231A, Y235Q
light: not shown
notes: copies: 2 + 2
B22: H237-MB645/MRAL-k0 (antibody, mouse IgG1, kappa)
heavy: B1 heavy with T230V
light: not shown
notes: copies: 2 + 2
B23: H237-MB658/MRAL-k0 (antibody, mouse IgG1, kappa)
heavy: B1 heavy with E229Q, T230P, Y231N, Y235F
light: not shown
notes: copies: 2 + 2
B24: H237-MB650/MRAL-k0 (antibody, mouse IgG1, kappa)
heavy: B1 heavy with T230A, Y235F
light: not shown
notes: copies: 2 + 2
B25: H237-MB654/MRAL-k0 (antibody, mouse IgG1, kappa)
heavy: B1 heavy with T230V, Y235F
light: not shown
notes: copies: 2 + 2
B26: H237-MB704/MRAL-k0 (antibody, mouse IgG1, kappa)
heavy: B1 heavy with T230P, Y231A, Y235A
light: not shown
notes: copies: 2 + 2
B27: H237-MB705/MRAL-k0 (antibody, mouse IgG1, kappa)
heavy: B1 heavy with T230P, Y231A, Y235G
light: not shown
notes: copies: 2 + 2
B28: H237-MB481/MRAL-k0 (antibody, mouse IgG1, kappa)
heavy: B1 heavy with T230A, Y235S
light: not shown
notes: copies: 2 + 2
B29: H237-MB471/MRAL-k0 (antibody, mouse IgG1, kappa)
heavy: B1 heavy with Y235E
light: not shown
notes: copies: 2 + 2
B30: H237-MB472/MRAL-k0 (antibody, mouse IgG1, kappa)
heavy: B1 heavy with T230V, Y235E
light: not shown
notes: copies: 2 + 2
B31: H237-MB469/MRAL-k0 (antibody, mouse IgG1, kappa)
heavy: B1 heavy with T230D, Y235E
light: not shown
notes: copies: 2 + 2
B32: H237-MB483/MRAL-k0 (antibody, mouse IgG1, kappa)
heavy: B1 heavy with T230N, Y235S
light: not shown
notes: copies: 2 + 2
B33: H237-MB482/MRAL-k0 (antibody, mouse IgG1, kappa)
heavy: B1 heavy with T230D, Y235S
light: not shown
notes: copies: 2 + 2
B34: H237-MB468/MRAL-k0 (antibody, mouse IgG1, kappa)
heavy: B1 heavy with T230A, Y235E
light: not shown
notes: copies: 2 + 2
B35: H237-MB470/MRAL-k0 (antibody, mouse IgG1, kappa)
heavy: B1 heavy with T230N, Y235E
light: not shown
notes: copies: 2 + 2

What follows are binders tested against T1, mouse FcγRII extracellular domain, … (assay: SPR Biacore T200, KD ratio).
Description: (§1) Each altered antibody was analyzed for its interaction with each Fcγ receptor prepared above using Biacore T100 (GE Healthcare Japan Corp.), Biacore T200 (GE Healthcare Japan Corp.), Biacore A100, or Biacore 4000. The running buffer used was HBS-EP+ (GE Healthcare Japan Corp.). The assay temperature was set to 25° C. The sensor chips used were chips prepared by immobilizing Protein L (ACTIGEN or BioVision) onto Series S Sensor Chip CM5 (GE Healthcare Japan Corp.) or Series S Sensor Chip CM4 (GE Healthcare Japan Corp.) by the amine coupling method.
(§2) In order to calculate the KD value of each altered antibody for FcγR, kinetic analysis was conducted according to the following method: first, the antibody of interest was captured onto any of these chips and allowed to interact with mFcγR diluted with a running buffer. For the obtained sensorgram, the assay results were globally fit into the 1:1 Langmuir binding model using Biacore Evaluation Software to calculate an association rate constant ka (L/mol/s) and a dissociation rate constant kd (1/s). From these values, the dissociation constant KD (mol/L) was calculated.

relative mFcγRII-binding activity (mIgG1 = 1) [fold] | Binder
4.55 | B1
0.4 | B2
3.98 | B3
23.5 | B4
14.2 | B5
10.8 | B6
70.4 | B7
0.61 | B8
0.28 | B9
3.89 | B10
1.77 | B11
1.17 | B12
0.28 | B13
0.41 | B14
0.41 | B15
0.3 | B16
4.38 | B17
1.05 | B18
0.89 | B19
0.85 | B20
50.8 | B21
1.17 | B22
0.51 | B23
0.24 | B24
0.27 | B25
14.1 | B26
8.71 | B27

Target: T2, mouse FcγRIII extracellular domain, …
Assay: SPR Biacore T200, KD ratio
Description: as §1, §2

relative mFcγRIII-binding activity (mIgG1 = 1) [fold] | Binder
0.3 | B1
0.06 | B2
0.05 | B3
2.5 | B4
1.61 | B5
0.64 | B6
2.31 | B7
0.04 | B8
0.06 | B9
0.51 | B10
0.08 | B11
0.05 | B12
0.03 | B13
0.1 | B14
0.03 | B15
0.04 | B16
0.15 | B17
0.1 | B18
0.02 | B19
0.05 | B20
1.22 | B21
0.2 | B22
0.06 | B23
0.05 | B24
0.07 | B25
0.87 | B26
0.75 | B27

Target: T3, mouse FcγRIII extracellular domain with …
Assay: SPR Biacore T200
Description: as §1, §2

relative mFcγRIII-binding activity (mIgG1 = 1) | Binder
0.6 | B28
4.8 | B29
2.5 | B30
2.8 | B31
0.9 | B32
0.7 | B33
2.8 | B34
4.9 | B35

The binders below were run against T4, mouse FcγRII extracellular domain with … (assay: SPR Biacore T200).
Description: as §1, §2

relative mFcγRII-binding activity (mIgG1 = 1) | Binder
8.5 | B28
91.4 | B29
39.4 | B30
57.1 | B31
9.4 | B32
14.1 | B33
63.1 | B34
63.8 | B35
